Test results: the supplement of paper PMC9170038

System: K4 kissing-loop RNA reporter
Assay: apparent KD of K4 kissing-loop reporter; higher = weaker reporter binding
Details: Eterna round: R107
Description: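 RNA-MaP round R107: designed RNA switches with theophylline, tryptophan, arginine or FMN aptamers are transcribed on-chip within common flanks. They are titrated with a labelled K4 kissing-loop RNA reporter in RNA-MaP buffer (100 mM Tris pH 7.5, 80 mM KCl, 4 mM MgCl2), without ligand or with the indicated ligand. Median apparent KD per design.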

[1] = input ligand: theophylline 20 uM
[2] = input ligand: tryptophan 2.4 mM
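Also: bound reporter read as fluorescence of individual clusters on recovered sequencing chips by microscopy, with normalized cluster intensities fitted with a binding model.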

Sequence	apparent KD of K4 kissing-loop reporter (input ligand: FMN 200 uM) [nM]	apparent KD of K4 kissing-loop reporter (input ligand: arginine 13.2 mM) [nM]	apparent KD of K4 kissing-loop reporter (input ligand: none) [nM]	apparent KD of K4 kissing-loop reporter [1] [nM]	apparent KD of K4 kissing-loop reporter [2] [nM]
CUCGAGUGAUGUUCGAUUAUUUAUACAGAUACCAGUGAAUUUUAACACCCUUGGCAGCUGGUAGUAUCGUUGUAAUUUACACAAG [JR_ExcTheophyA_Sub004]	99.8	163	116	168	87.9
CUCGUGGGUUUGAGAGGGCUUGUGGGAAGUGAGGAUAUUUAGGGAGAAAGAAGGCACUAUAAAAUAUAGUGAUGUUAUAUAAGGG [SSFMNA.M]	494	138	188	751	347
CUGACGAUGACACGGUGGCCGCUGGUCGUGCGAGGACCGGUACGGCCGCCACUCGCAUGAGUGAUGUUCAUGUGUCGUCGUCGUC [#08 K4 Tryptophan A Exclusion]	133	101	111	112	118
CUGACGUGCGGUAGGUUCAAGUGCUGGGAAGGAGCGCAGAUGACUGCAGGUAGGUCGCCCAGUGAUGUUGGGCUUUCCACCUACG [Quinbe]	186	180	193	214	186
CUGACUAAAUAGUCAGUGAUGUUGACUGGACGAGGACCGGUACGGCCGCCACUCGAGAGUGGUGUAAUAUAUGUCAUAUAGUCAA [Tryp A SS t3]	517	258	436	423	233
CUGUCAUGGGAUGGGCCAGUGAUGUUGGGCCGAGGACCGGUACGGCCGCCACUCGUAGCACAGUGCGCGCUAGCAUUGUACGUCA [theeternabot_exclusion_KL_Trp_A_35]	1260	629	977	808	456
CUUAGGUCAGUUACCCGAGUGAUGUUCUGUCGAGGACCGGUACGGCCGCCACUCGCUCAUUAUCGGUCUGACAAAGAGCUGGCUU [theeternabot_exclusion_KL_Trp_A_9]	393	56.4	208	136	106
CUUCGAUUAACAGAUACCAGUCACUUGGGAGCCACACACAAGUGAGUGAUGUUCACUUGUGACCCUUGGCAGCUGUUAGUCGAAG [#04 K4 Theophylline B Exclusion]	102	86.5	97.2	127	103
CUUGAUCGAGGAAGGAGCGGGCCGUCAUUGAGCGCAGUGAUGUUGCGUUCGACUAGUCGAGCCCAGGUAGGUCGCCUGGAGUAAG [Lazalaa]	84.9	76.1	98.2	78.2	90.8
CUUGAUGUAGCGGCCGCCACUCUAGAUCCGCAUCGGAUGAGGUACUUGAAGUGAUGUUUUGAGGUGAGGACCGGGCUCUAAAGAA [theeternabot_sameState_KL_Trp_B_16]	750	455	564	452	420
CUUGUACAUGCCGAGGUAGGUGCGGGUUAGCGAGGACCGGUACGGCCGCCACUCGCCAAGUGAUGUUUGGUCCUUUGGAUCGGCA	1220	453	366	690	183
GAAAGAAAGUAUGAUACCAGACACCCGAGUGAUGUUCGGAGCAGAGUGAUGUUCUUUUAAGUCCCUUGGCAGCAUAAAAGAAAAG [whbob_SS_Theo_B_sa83]	192	219	238	294	166
GAAUGAUAGUAAGGAUAUAGAUAAUCCUUAUAUAUAUCGAGUGAUGUUCGAUGUGGCAAGAUACAUCUAGAAGGUACUGUAAGGU [Same State FMN B GF 16]	309	321	361	361	240
GACAGCCGGUCGGCCGCCACUUGGAGUGAUGUUCCGCGCGGCGGGCGCCGGAGGGCGUUAAGCCCAAGGACCGGGACCGGUAACG [Celeso]	114	103	92.9	114	104
GACGUGCGAGAGACCGCUCUACCUUGAGAUCGAGGACCGGUACGGCCGCCACUCGGUGUUUAACGUCGAUCCCAGUGAUGUUGGA [theeternabot_sameState_KL_Trp_A_21]	521	230	429	450	234
GACUCUCUCGUCAGGAAGACGCACUCAGCCAAGGAUAUUAUGUUUUUAAGAAGGUGGACUUAUGCCAGUGAUGUUGGCAGAUACG [theeternabot_sameState_KL_FMN_A_29]	50.6	86.1	67.6	99.9	57.1
GAGGCCAGACUGAGUGAUGUUUAGUAUGAUACCAGUAUCGAAGGAUACCCUUGGCAGCAUGCCACGGCCUCGGCGGGAAACCGCC	746	663	1000	714	876
GAGGUAUGCGCAGUGAUGUUGCGACGAGAUACCAGUCGUUCUGUCGACCCUUGGCAGCUCCCACCAGACGUACGAGUUUGUGUUG [theeternabot_sameState_KL_Theo_A_10]	114	111	113	113	99.5
GAGUCCUUUGAAGGAUAUAGACGUCCCGAUCACUCAGUUGGCGAGCGAGUGAUGUUCGUUCCUAUACUAGAAGGUCAAAGCCUCC [theeternabot_sameState_KL_FMN_B_32]	225	193	211	204	205
GAUCAUAGCACGGCCGCCACUGAUAUGCCGUGCUAUACGAGUGAUGUUCGUAAUUAUACGGGUAUCAGGACCGGGUGCAACGGUA [Tryp B SS t2]	149	89.3	113	167	112
GAUCUGAACGAAAGUUCGGAUCAGUCCGAUACCAGUAUGGAUUCAUACCCUUGGCAGCGGUUAUCUGCUAUGGAGUGAUGUUCCA [Theophylline A K4 11]	502	344	483	321	348
GAUGCCAUGAUCCUCCUGGUAUCGGGAGAUACCAGCGUGCUGACACGCCCUUGGCAGCUCCAUUCGAGAGUGAUGUUGUCGAGAA [KL-SSTheo-A8 #analogue]	453	114	330	237	287
